Experimental findings from US20230295336A1 (INHIBRX, published 2023) are described below.

The target in test [1] is T1, Folate Receptor Alpha (FRα) (UniProt P15328 25-234, limits assumed).
T1 construct: whole, on cells; also called FR-Alpha
As to the kind of experiment: flow cytometry on Ovcar-5 cells, anti-human IgG Fc secondary. The protocol:
(§1) Binding of exemplary multispecific polypeptide constructs of the disclosure containing an antigen-binding domain directed against Folate Receptor Alpha (FRα) to CD3 on the surface of primary T cells and to FRα expressing cells (Ovcar-5) was assessed by flow cytometry. The tumor antigen binding domains of the tested constructs bind the Folate Receptor Alpha (FRα), which is not expressed on the primary T cells. The tested constructs included cx1356 and cx681, containing a non-cleavable linker of 3 amino acids in cx1356 or a non-cleavable linker of 18 amino acids in cx681 (see FIG. 2B and Table E1.1).
(§2) For the studies described in FIGS. 5A and 5B, 100 nM of each construct, cx1356 or cx681 was used and assessed for binding to either the Ovcar-5 cells or primary T-cells. An anti-CD3 antibody was included as a control. A titration of the constrained CD3 engaging constructs on either FRα expressing cells (Ovcar-5; FIG. 5C) or isolated primary T-cells (FRα negative; FIG. 5D), was conducted to assess binding. Bound constructs were detected using fluorophore-conjugated anti-human IgG Fc secondary antibody.

The target of test [2] is T2, CD3 on the surface of primary T cells (human, UniProt P07766 23-207).
T2 construct: whole, on cells; CD3 is a multimeric complex (ε, γ, δ, ζ chains) with the TCR; In the reporter assays CD3 stood on Jurkat cells; also called CD3ε
T2 sequence (P07766 23-207): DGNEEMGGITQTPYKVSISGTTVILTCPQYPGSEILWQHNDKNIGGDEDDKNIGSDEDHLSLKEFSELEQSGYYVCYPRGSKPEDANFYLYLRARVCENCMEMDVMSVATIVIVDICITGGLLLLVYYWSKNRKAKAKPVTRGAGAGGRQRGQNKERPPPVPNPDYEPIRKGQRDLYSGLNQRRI
The experiment in a line: flow cytometry on isolated primary T cells, anti-human IgG Fc secondary. The protocol:
as §1, §2
A general note: Flow cytometry measures light scatter and fluorescence of single cells or particles in a stream.

Another test has as its target T3, B7H3 (CD276) (human, UniProt Q5ZPR3 29-534).
T3 construct: whole, on cells
T3 sequence (looked up): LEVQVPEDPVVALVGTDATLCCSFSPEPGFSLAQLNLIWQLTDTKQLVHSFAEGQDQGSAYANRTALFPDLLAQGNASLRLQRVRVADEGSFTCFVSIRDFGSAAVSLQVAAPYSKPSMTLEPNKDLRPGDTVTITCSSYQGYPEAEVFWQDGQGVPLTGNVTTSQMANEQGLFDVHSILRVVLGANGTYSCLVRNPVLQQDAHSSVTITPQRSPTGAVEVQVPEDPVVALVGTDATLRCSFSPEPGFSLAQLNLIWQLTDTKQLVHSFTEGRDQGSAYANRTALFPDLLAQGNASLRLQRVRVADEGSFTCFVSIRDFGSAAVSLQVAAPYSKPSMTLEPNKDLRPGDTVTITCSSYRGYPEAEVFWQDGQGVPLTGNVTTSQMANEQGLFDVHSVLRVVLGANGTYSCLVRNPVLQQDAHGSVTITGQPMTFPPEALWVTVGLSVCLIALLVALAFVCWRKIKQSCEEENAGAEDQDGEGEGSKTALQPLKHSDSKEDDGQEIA
As to the kind of experiment: flow cytometry on A375 cells. The method, then:
(§3) Binding of exemplary multispecific constructs containing an antigen-binding domain directed against B7H3 were assessed for binding to B7H3 positive A375 tumor cells or primary T-cells. The constructs were generated containing antigen-binding domain(s) that were either sdAbs or a FABs, and that were positioned either only N-terminal to the Fc or both N-terminal to the Fc and C-terminal to the anti-CD3 binding domain (see FIGS. 3A and 3C and Table E1.1). Among the various formats of constructs tested included: sdAb-Fc-dsFV-sdAb (cx3072, cx5952) sdAb-Fc-FV (cx6079), sdAb-Fc-dsFV (cs6080, cx6081), MAB-FV (cx5067) and MAB-dsFV (cx6083, cx6084), where the FV represents the anti-CD3 binding domain composed of VH and VL domain pairs and “ds” notes disulfide stabilized via an engineered interdomain disulfide bond.
(§4) Binding was assessed as described above via flow cytometry using a fluorophore-conjugated anti-human Fc secondary antibody. cx3072 bound to A375 cells with high affinity (FIG. 6A) but not to isolated T-cells (FIG. 6B). […]

The target in test [3] is T2, CD3 on the surface of primary T cells. The experiment in a line: flow cytometry on isolated T cells. The protocol: as §3, §4

T1 sequence (P15328 25-234 limits assumed): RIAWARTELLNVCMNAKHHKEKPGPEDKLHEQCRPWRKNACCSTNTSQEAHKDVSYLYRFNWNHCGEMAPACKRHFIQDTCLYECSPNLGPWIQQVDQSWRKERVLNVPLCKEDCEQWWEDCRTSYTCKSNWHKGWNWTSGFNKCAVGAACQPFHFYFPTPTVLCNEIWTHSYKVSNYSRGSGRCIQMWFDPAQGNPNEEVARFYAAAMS

B1: cx1356 (bispecific antibody)
chain 1: not shown
chain 2: QLQLQESGGGLVQPGGSLRLSCAASGFTLDNYAIGWFRQAPGKEREGVSCISSSDGSTYYADSVKGRFTISRNNAKGTVYLLMNSLKPEDTAVYYCATELVPACTYSNGRGPLDGMDYWGKGTQVTVKPPGGGGDKTHTCPPCPAPELLGGPSVFLFPPKPKDTLMRSRTPEVTCVVVDVSHEDPEVKFNWYVDGVEVHNAKTKPREEQYNSTYRVVSVLTVLHQDWLNGKEYKCKVSNKALPAPIEKTISKAKGQPREPQVCTLPPSRDELTKNQVSLSCAVKGFYPSDIAVEWESNGQPENNYKTTPPVLDSDGSFFLVSKLTVDKSRWQQGNVFSCSVMHEALHNHYTQKSLSLSPGGSQAVVTQEPSLTVSPGGTVTLTCGSSTGAVTTSNYANWVQQKPGKSPRGLIGGTNKRAPGVPARFSGSLLGGKAALTISGAQPEDEADYYCALWYSNHWVFGCGTKLTVLGGGGEVQLLESGGGEVQPGGSLRLSCAASGSIFSIDATAWYRQAPGKQRELVAIITSSGSTNYPESVKGRFTISRDNAKNTVYLQMSSLRAEDTAVYYCNAITRYGGSTYDFWGQGTLVTVKP
notes: Heterodimer of chain 1 and chain 2; anti-CD3 Fv disulfide-stabilized (VH G44C / VL G100C); the shortest entry is written; also called FRα-targeting constrained CD3 engaging construct; gs3 linker
For the molecule B1, the binding result in test [1] is reported as “binds”; in test [2], “no binding (tested: 100 nM)”.

B2: cx6079 (bispecific antibody)
chain 1: EVQLVESGGGEVQPGGSLRLSCAASGFSFSSNVMMWVRQAPGKGLEWVSTIYSSGTGTFYAESVKGRFTISRDNAKNTLYLQMSSLRPEDTAVYYCATSGPVRGWGPRSQGTLVTVKPPGGGGDKTHTCPPCPAPPVAGPSVFLFPPKPKDTLMISRTPEVTCVVVDVKHEDPEVKFNWYVDGVEVHNAKTKPREEEYNSTYRVVSVLTVLHQDWLNGKEYKCKVSNKALPAPIEKTISKAKGQPREPQVYTLPPSREEMTKNQVSLTCDVSGFYPSDIAVEWESDGQPENNYKTTPPVLDSDGSFFLYSKLTVDKSRWEQGDVFSCSVMHEALHNHYTQKSLSLSPGKGGGGSGGGGSGGGGSEVQLVESGGGLVQPGGSLRLSCAASGFTFSTYAMNWVRQAPGKGLEWVGRIRSKYNNYATYYADSVKGRFTISRDDSKNTLYLQMNSLRAEDTAVYYCVRHGNFGDSYVSWFAYWGQGTLVTVSS
chain 2: EVQLVESGGGEVQPGGSLRLSCAASGFSFSSNVMMWVRQAPGKGLEWVSTIYSSGTGTFYAESVKGRFTISRDNAKNTLYLQMSSLRPEDTAVYYCATSGPVRGWGPRSQGTLVTVKPPGGGGDKTHTCPPCPAPPVAGPSVFLFPPKPKDTLMISRTPEVTCVVVDVKHEDPEVKFNWYVDGVEVHNAKTKPREEQYNSTYRVVSVLTVLHQDWLNGKEYKCKVSNKALPAPIEKTISKAKGQPREPQVYTLPPSREQMTKNQVKLTCLVKGFYPSDIAVEWESNGQPENNYKTTPPVLDSDGSFFLYSKLTVDKSRWQQGNVFSCSVMHEALHNHYTQKSLSLSPGKGGGGSGGGGSGGGGSQAVVTQEPSLTVSPGGTVTLTCGSSTGAVTTSNYANWVQQKPGKSPRGLIGGTNKRAPGVPARFSGSLLGGKAALTISGAQPEDEADYYCALWYSNHWVFGGGTKLTVL
notes: Heterodimer of chain 1 and chain 2; anti-CD3 Fv not disulfide-stabilized; two identical B7H3 sdAbs, both N-terminal to the Fc; also called B7H3-targeting constrained CD3 engaging construct; sdAb-Fc-FV
As to B2, the binding result with B7H3 (CD276) is given as “binds”; in test [3], “no binding”.

B3: cx681 (bispecific antibody)
chain 1: not shown
chain 2: QLQLQESGGGLVQPGGSLRLSCAASGFTLDNYAIGWFRQAPGKEREGVSCISSSDGSTYYADSVKGRFTISRNNAKGTVYLLMNSLKPEDTAVYYCATELVPACTYSNGRGPLDGMDYWGKGTQVTVKPPGGGGDKTHTCPPCPAPELLGGPSVFLFPPKPKDTLMRSRTPEVTCVVVDVSHEDPEVKFNWYVDGVEVHNAKTKPREEQYNSTYRVVSVLTVLHQDWLNGKEYKCKVSNKALPAPIEKTISKAKGQPREPQVCTLPPSRDELTKNQVSLSCAVKGFYPSDIAVEWESNGQPENNYKTTPPVLDSDGSFFLVSKLTVDKSRWQQGNVFSCSVMHEALHNHYTQKSLSLSPGGSGGGGSGGGGSGGGGSQAVVTQEPSLTVSPGGTVTLTCGSSTGAVTTSNYANWVQQKPGKSPRGLIGGTNKRAPGVPARFSGSLLGGKAALTISGAQPEDEADYYCALWYSNHWVFGCGTKLTVLGGGGEVQLLESGGGEVQPGGSLRLSCAASGSIFSIDATAWYRQAPGKQRELVAIITSSGSTNYPESVKGRFTISRDNAKNTVYLQMSSLRAEDTAVYYCNAITRYGGSTYDFWGQGTLVTVKP
notes: Heterodimer of chain 1 and chain 2; anti-CD3 Fv disulfide-stabilized (VH G44C / VL G100C); the shortest entry is written; also called FRα-targeting constrained CD3 engaging construct; gs18 linker
With B3, the results for the binding result in test [1] and in test [2] were “binds” and “no binding (tested: 100 nM)”, respectively.

B4: cx5952 (bispecific antibody)
chain 1: EVQLVESGGGEVQPGGSLRLSCAASGFSFSSNVMMWVRQAPGKGLEWVSTIYSSGTGTFYAESVKGRFTISRDNAKNTLYLQMSSLRPEDTAVYYCATSGPVRGWGPRSQGTLVTVKPPGGGGDKTHTCPPCPAPGGPSVFLFPPKPKDTLMISRTPEVTCVVVDVSHEDPEVKFNWYVDGVEVHNAKTKPREEQYNSTYRVVSVLTVLHQDWLNGKEYKCKVSNKALPAPIEKTISKAKGQPREPQVYTLPPCRDELTKNQVSLWCLVKGFYPSDIAVEWESNGQPENNYKTTPPVLDSDGSFFLYSKLTVDKSRWQQGNVFSCSVMHEALHNHYTQKSLSLSPGGGGGGSGGGGGSGGGGGSEVQLVESGGGLVQPGGSLRLSCAASGFTFNTYAMNWVRQAPGKCLEWVARIRSKYNNYATYYADSVKGRFTISRDDAKNTLYLQMSSLRAEDTAVYYCVRHGNFGNSYVSWFAYWGQGTLVTVKPGGGGEVQLVESGGGEVQPGGSLRLSCAASGFTFSSYHMSWFRQAPGKQRELVATSHHGGTTNYAGSVKGRFTISRDNAKNTVYLQMNTLRAEDTAVYYCKADHGYQGRGYWGQGTLVTVKP
chain 2: DKTHTCPPCPAPGGPSVFLFPPKPKDTLMISRTPEVTCVVVDVSHEDPEVKFNWYVDGVEVHNAKTKPREEQYNSTYRVVSVLTVLHQDWLNGKEYKCKVSNKALPAPIEKTISKAKGQPREPQVCTLPPSRDELTKNQVSLSCAVKGFYPSDIAVEWESNGQPENNYKTTPPVLDSDGSFFLVSKLTVDKSRWQQGNVFSCSVMHEALHNRYTQKSLSLSPGGGGGGSGGGGGSGGGGGSQAVVTQEPSLTVSPGGTVTLTCGSSTGAVTTSNYANWVQQKPGQAFRGLIGGTNKRAPGVPARFSGSLLGGKAALTISGAQPEDEADYYCALWYSNHWVFGCGTKLEIK
notes: Heterodimer of chain 1 and chain 2; anti-CD3 Fv disulfide-stabilized (VH G44C / VL G100C); also called B7H3-targeting constrained CD3 engaging construct; sdAb-Fc-dsFV-sdAb
Turning to B4, the binding result in test [3] is recorded as “no binding”.
